One molecule from patent US7169901 (Genentech, dated 2007) can be followed below.

This test deals with rhVEGF165 (human, UniProt P15692 27-191, limits assumed). Kind of test: cell-based or functional assay.
Chain of rhVEGF165 (P15692 other isoform, or with tags, fused parts or gaps limits assumed): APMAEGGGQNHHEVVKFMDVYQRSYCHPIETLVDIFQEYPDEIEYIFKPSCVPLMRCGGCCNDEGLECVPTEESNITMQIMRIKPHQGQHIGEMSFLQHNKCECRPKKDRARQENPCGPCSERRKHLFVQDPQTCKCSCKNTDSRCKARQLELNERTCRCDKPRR

B1: Y0313-1 (Fab, V domains shown)
VH: EVQLVESGGGLVQPGGSLRLSCAASGYDFTHYGMNWVRQAPGKGLEWVGWINTYTGEPTYAADFKRRFTFSLDTSKSTAYLQMNSLRAEDTAVYYCAKYPYYYGTSHWYFDVWGQGTL
VL: DIQLTQSPSSLSASVGDRVTITCRANEQLSNYLNWYQQKPGKAPKVLIYFTSSLHSGVPSRFSGSGSGTDFTLTISSLQPEDFATYYCQQYSTVPWTFGQGTKVEIKR
Consider B1, for which the “potency in inhibiting VEGF-induced HuVEC growth ([3H]-thymidine), relative to Y0192 Fab” value came to 30 fold.
